Measurements from US6103872A, “CAPON: a protein associated with neuronal nitric oxide synthase” (The Johns Hopkins University, priority 1998, dated 2000).

Columns and labels:
PSD93 = experiment: Yeast two-hybrid interaction with PSD93 second PDZ domain (amino acids 116-421); type: cell-based
Source text: (§1) FIGS. 1A-1C. Cloning of the CAPON cDNA and distribution of CAPON mRNA. […] Yeast were transformed with the indicated Gal4 activation domain (AD) and Gal4 DNA-binding domain (BD) plasmids and grown on plates […] histidine. A typical filter lift is shown in which b-galactosidase activity was detected by the appearance of a blue precipitate. pAD-CAPON1, comprising the last 125 amino acids of CAPON, activates lacZ transcription in the presence of pBD-nNOS (2-377) but not with plasmids the first three PDZ domains of PSD95 (amino acids 20-364) or the second PDZ domain of PSD93 (amino acids 116-421).
(§2) We conducted a yeast two-hybrid screen employing the first 377 amino acids of nNOS, a region which includes the PDZ domain that comprises the first 100 amino acids of nNOS. […] The CAPON two-hybrid clones share a common carboxyl terminus and are predicted to translate into 125 and 327 amino acid peptides followed by a stop codon. […] Moreover, nNOS fails to interact with another control protein, c-fos. To obtain a full-length CAPON cDNA, we screened a rat brain cDNA library with the larger two-hybrid clone and isolated a 2100 bp cDNA which overlapped with the two-hybrid clone and was used to assemble a final 2820 bp cDNA (see Methods). The conceptual translation of this cDNA produces a 503 amino acid protein (FIG. 1B SEQ ID NO:4). […]

nNOS [1] = experiment: Yeast two-hybrid interaction with nNOS (2-377); type: cell-based, rat
Source text: as §1
We conducted a yeast two-hybrid screen employing the first 377 amino acids of nNOS, a region which includes the PDZ domain that comprises the first 100 amino acids of nNOS. […]
Two-hybrid screens and the construction of the parent vectors pPC86, containing the GAL4-activation domain, and pPC97, containing the GAL4-DNA binding domain, have been described (Jaffrey and Snyder, 1996). Plasmid pBD-NOS(2-377) was prepared by the insertion of an nNOS PCR product corresponding to amino acids 2-377 of rat nNOS into the Sal I and Bgl II sites of pPC97, resulting in an open reading frame encoding a GAL4 BD-NOS fusion protein (Jaffrey and Snyder, 1996). […]

PSD95 = experiment: Yeast two-hybrid interaction with PSD95 PDZ domains (amino acids 20-364); type: cell-based
Source text: as §1, §2

nNOS [2] = biological target: nNOS (Rattus norvegicus, UniProt P29476); experiment: GST-fusion protein binding assay with lysates of transfected HEK293 cells, nNOS; design: expressed in transfected cells; host or cells: HEK293; settings: Western blot
Chain of nNOS (Rattus norvegicus, UniProt P29476) (P29476 whole entry, the tested form may be a part, canonical isoform): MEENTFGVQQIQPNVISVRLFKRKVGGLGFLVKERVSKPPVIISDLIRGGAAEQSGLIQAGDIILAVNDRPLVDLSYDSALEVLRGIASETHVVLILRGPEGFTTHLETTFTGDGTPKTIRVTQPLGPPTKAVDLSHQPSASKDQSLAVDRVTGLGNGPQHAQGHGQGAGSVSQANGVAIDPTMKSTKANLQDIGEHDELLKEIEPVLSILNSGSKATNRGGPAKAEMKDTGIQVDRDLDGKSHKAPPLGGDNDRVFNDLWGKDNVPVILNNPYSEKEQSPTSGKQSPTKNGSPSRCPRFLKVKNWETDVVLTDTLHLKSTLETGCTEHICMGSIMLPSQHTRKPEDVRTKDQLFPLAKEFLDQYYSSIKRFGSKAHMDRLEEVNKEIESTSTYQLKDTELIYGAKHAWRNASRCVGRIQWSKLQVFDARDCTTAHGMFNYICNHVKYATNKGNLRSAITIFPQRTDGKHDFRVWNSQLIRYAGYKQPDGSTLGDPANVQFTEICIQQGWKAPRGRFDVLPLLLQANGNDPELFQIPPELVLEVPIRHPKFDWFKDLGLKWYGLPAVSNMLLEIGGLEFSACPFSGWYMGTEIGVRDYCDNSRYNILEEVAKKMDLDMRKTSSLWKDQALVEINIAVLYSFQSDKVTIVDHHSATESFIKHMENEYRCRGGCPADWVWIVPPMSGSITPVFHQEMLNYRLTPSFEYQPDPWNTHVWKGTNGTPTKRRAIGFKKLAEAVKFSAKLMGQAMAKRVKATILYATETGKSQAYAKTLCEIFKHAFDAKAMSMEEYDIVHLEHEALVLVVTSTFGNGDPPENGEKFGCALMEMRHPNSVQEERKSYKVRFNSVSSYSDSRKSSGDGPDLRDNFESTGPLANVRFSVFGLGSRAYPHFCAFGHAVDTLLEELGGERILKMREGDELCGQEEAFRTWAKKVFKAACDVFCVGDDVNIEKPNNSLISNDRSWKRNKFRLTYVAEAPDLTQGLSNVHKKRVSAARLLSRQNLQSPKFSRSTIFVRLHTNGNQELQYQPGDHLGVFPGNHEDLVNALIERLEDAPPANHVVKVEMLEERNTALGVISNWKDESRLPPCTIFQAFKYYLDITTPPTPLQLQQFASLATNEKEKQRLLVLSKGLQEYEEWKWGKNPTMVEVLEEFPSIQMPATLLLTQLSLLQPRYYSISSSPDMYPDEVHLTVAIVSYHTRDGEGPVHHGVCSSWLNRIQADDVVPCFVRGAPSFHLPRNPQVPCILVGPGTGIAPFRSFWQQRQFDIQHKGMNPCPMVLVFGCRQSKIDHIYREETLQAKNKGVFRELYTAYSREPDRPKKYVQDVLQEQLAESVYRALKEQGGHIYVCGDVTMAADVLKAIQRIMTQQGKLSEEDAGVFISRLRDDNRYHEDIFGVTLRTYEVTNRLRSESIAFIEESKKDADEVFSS
Procedure: (§3) (FIG. 2A) CAPON binds to nNOS, but not eNOS or iNOS. Bacterially expressed GST, GST-PIN, and GST-CAPON were bound to glutathione agarose and then incubated with lysates of HEK293 cells transfected with expression plasmids for the indicated isoforms of NOS. After extensive washing of the resins, bound NOS was detected with isoform specific antibodies. […] Input=10% of starting material applied to each resin.
(FIG. 4B) The C-terminal 13 amino acids of CAPON are sufficient for binding to nNOS. Various GST-CAPON fusion proteins were incubated with HEK293 lysates containing nNOS. A CAPON fusion protein comprising the last 100 amino acids binds nNOS, as do fusion proteins comprising the last 13 or 20 amino acids of CAPON.
(§4) To assess the specificity of interactions between CAPON and nNOS, we evaluated the binding of a GST-CAPON fusion protein, consisting of C-terminal 125 amino acids of CAPON, with nNOS, eNOS and inducible NOS (iNOS) (FIG. 2A). Lysates of HEK-293 cells transfected with expression plasmids for each of the three forms of NOS were incubated with GST-CAPON. […] No interactions are evident with the GST control. […]
(§5) The material remaining on the resin was eluted with SDS-PAGE sample buffer and nNOS was detected by immunoblot using antibodies specific to each NOS isoform (Transduction Labs). […]

eNOS = experiment: GST-fusion protein binding assay with lysates of transfected HEK293 cells, eNOS; settings: Western blot
Procedure: as §3, §4, §5

iNOS = experiment: GST-fusion protein binding assay with lysates of transfected HEK293 cells, iNOS; settings: Western blot
Procedure: as §3, §4, §5

Molecule	interaction with PSD93 fragment in the two-hybrid system (PSD93)	interaction with nNOS in the two-hybrid system (nNOS [1])	interaction with PSD95 fragment in the two-hybrid system (PSD95)	binding of nNOS to immobilized GST-fusion protein (nNOS [2])	binding of eNOS to immobilized GST-fusion protein (eNOS)	binding of iNOS to immobilized GST-fusion protein (iNOS)
125 amino acid C-terminal fragment of CAPON: Gal4 activation domain fusion of the last 125 amino acids of CAPON (protein) SGALPVLCESTTPKPEDLHSPLLGAGLADFAHPVGSPLGRRDCLVKLECFRFLPAEDNQPMAQGEPLLGGLELIKFRESGIASEYESNTDESEERDSWSQEELPRLLNVLQRQELGDSLDDEIAV	failure of CAPON to interact	specifically interacts	failure of CAPON to interact			
GST-CAPON: GST fusion protein consisting of CAPON amino acids 379-503 (C-terminal 125 amino acids) (protein) SGALPVLCESTTPKPEDLHSPLLGAGLADFAHPVGSPLGRRDCLVKLECFRFLPAEDNQPMAQGEPLLGGLELIKFRESGIASEYESNTDESEERDSWSQEELPRLLNVLQRQELGDSLDDEIAV				interacts strongly	do not interact	do not interact
